PMC12018189, “ATP synthesis of Enterococcus hirae V-ATPase driven by sodium motive force” (The Journal of Biological Chemistry, 2025)

Legend:
purified protein = substrate: O=P(O)(O)O; test: purified protein; details: ATP synthesis direction, 0.5 mM ADP, 5 mM MgCl2, pH 7.0, 25 °C, smf 269.3 mV (Δψ 154.7 mV, ΔpNa 114.6 mV)
[1] = substrate: Nc1ncnc2c1ncn2[C@@H]1O[C@H](COP(=O)(O)OP(=O)(O)O)[C@@H](O)[C@H]1O; test: luciferin/luciferase luminescence assay of ATP synthesis, proteoliposomes; format: biochemical, Enterococcus hirae; details: ATP synthesis direction, 74 mM Pi, 5 mM MgCl2, pH 7.0, 25 °C, smf 269.3 mV (Δψ 154.7 mV, ΔpNa 114.6 mV)
From the text: luciferin/luciferase luminescence assay of ATP synthesis, proteoliposomes on EhVoV1 (Enterococcus hirae V-ATPase)

B1: EhVoV1 (Enterococcus hirae V-ATPase) (Enterococcus hirae ATCC 9790) (protein)
chain 1: MQIGKIIKVSGPLVMAENMSEASIQDMCLVGDLGVIGEIIEMRQDVASIQVYEETSGIGPGEPVRSTGEALSVELGPGIISQMFDGIQRPLDTFMEVTQSNFLGRGVQLPALDHEKQWWFEATIEEGTEVSAGDIIGYVDETKIIQHKIMVPNGIKGTVQKIESGSFTIDDPICVIETEQGLKELTMMQKWPVRRGRPIKQKLNPDVPMITGQRVIDTFFPVTKGGAAAVPGPFGAGKTVVQHQIAKWSDVDLVVYVGCGERGNEMTDVVNEFPELIDPNTGESLMERTVLIANTSNMPVAAREASIYTGITIAEYFRDMGYDVAIMADSTSRWAEALREMSGRLEEMPGDEGYPAYLGSRLAEYYERSGRVIALGSDQREGSITAISAVSPSGGDISEPVTQNTLRVVKVFWGLDSSLAQKRHFPSINWIQSYSLYSTEVGRYMDQILQQDWSDMVTEGMRILQEEEQLNEIVRLVGIDSLSDNDRLTLEVAKSIREDYLQQNAFDDVDTFTSREKQFNMLKVILTFGKEARKALSLGAYFNEIMEGTVAVRERISRSKYIPEEELAKISSINEEIKETIQLIVSEGGMTDD
chain 2: MIKEYRTIKEVVGPLMAVEKVSGVKYEELIEVRMQNGEIRRGQVLEVQEDKAMVQIFEGTSGINLKNSSVRFLGHPLQLGVSEDMIGRVFDGLGRPKDNGPEILPEKYLDINGEVINPIARDYPDEFIQTGISAIDHLNTLVRGQKLPVFSGSGLPHKELAAQIARQATVLDSSDDFAVVFAAIGITFEEAEFFMEDFRQTGAIDRSVMFMNLANDPAIERIATPRMALTAAEYLAYEKGMHVLVIMTDMTNYAEALREISAARREVPGRRGYPGYLYTNLATLFERAGRIRGLKGSVTQIPILTMPEDDKTHPIPDLTGYITEGQIILTRELYKSGIQPPIDVLPSLSRLKDKGTGAGKTREDHAATMNQLFAAYAQGKQAKELAVVLGESALSDIDKIYAKFAERFENEYVNQGFYTNRTITETLDLGWELLAMLPRTELKRIKDDLLDKYLPEGK
notes: whole VoV1 complex, His tags on c-subunits, expressed in E. coli C41(DE3), DDM-solubilised, Ni-NTA and size exclusion, reconstituted into soybean phosphatidylcholine liposomes; with V-type sodium ATPase subunit D; V-type sodium ATPase subunit G; V-type sodium ATPase subunit E; V-type sodium ATPase subunit F; V-type sodium ATPase subunit C; V-type sodium ATPase subunit I; V-type sodium ATPase …
Question: What does the source list for B1?
Answer: Km (purified protein): 2100 ± 200 µM; kcat (purified protein): 4.7 s⁻¹; Km [1]: 21 ± 2 µM; kcat [1]: 4.7 s⁻¹
